This is an account of results in article doi:10.1101/391656 (bioRxiv, 2018).

Broadly, the Kd is the concentration at which binding is half-saturated. Higher therefore signals weaker binding.

The test deals with V1ΔC (S. cerevisiae, UniProt P17255 2-283; P17255 738-1071; P16140 1-517; P32610 1-256; P22203 1-233; P39111 …). Nature of the test: BLI. (In general: BLI is a label-free optical method that tracks binding on a fibre tip over time.)

B1: MBP-C (natural protein, S. cerevisiae, UniProt P31412 1-392, looked up)
chain: MATALYTANDFILISLPQNAQPVTAPGSKTDSWFNETLIGGRAFVSDFKIPEFKIGSLDTLIVESEELSKVDNQIGASIGKIIEILQGLNETSTNAYRTLPINNMPVPEYLENFQWQTRKFKLDKSIKDLITLISNESSQLDADVRATYANYNSAKTNLAAAERKKTGDLSVRSLHDIVKPEDFVLNSEHLTTVLVAVPKSLKSDFEKSYETLSKNVVPASASVIAEDAEYVLFNVHLFKKNVQEFTTAAREKKFIPREFNYSEELIDQLKKEHDSAASLEQSLRVQLVRLAKTAYVDVFINWFHIKALRVYVESVLRYGLPPHFNIKIIAVPPKNLSKCKSELIDAFGFLGGNAFMKDKKGKINKQDTSLHQYASLVDTEYEPFVMYIINL
Consider B1, for which the equilibrium dissociation constant (Kd) was about 0.7 nM.
